Assay: soluble on expression in E. coli; label from the status in PepcDB or PDB records

Sequence | soluble on expression in E. coli
MGSDKIHHHHHHMNVFATLKTVFFGSKFLSSPVPIDGTPRRDLVSALNGLMPLCRTIPGVRLALDIREGQVVLALNWTPRTDGNAPTGSYHYIVSDEDGVREMADSQVLLTENGKDNLPGSMDDSRTHPTVSTEKTEKDSAHLKKDVQKKAGPTSPEDTGKKAKSHTLMQEVTAFLTSRYRFRFNVLTEETEVASVENNIPDTHLRYAKVDERWMNSLSLEAIETGIDCWDRDIQRFVRSRRISEYHPFTAYFEQLPEWDGTDRVSALARRVSDDPVWVNGFHRWMLGLSAQWMQLNPDNNRANSVAPLLVSSRQGLGKSTFCRLLMPDRLKSYYTESYDLSSPTSAEAKLAAYGLINLDEFDKLGASKMPLLKNLMQASALNIRKAYKHSASSLPRIASFIGTSNREDLLVDRTGSRRFLCVSLKHAIDCTTSVEHKQLYAQLKTELLSGERSWFNKEEEQTIQQHNALFYKHVPEEEVFRLCFRFATEEDNPQEVLSLSATQLFERMKAAHPSIMRGMTAYSLSRILPQLGERVHTTKGNVYRVVEC | not soluble
MTERFFAPCPRGLETVLAAELERLDATSIQASPGGVGFHGNWQTCYRANLESRIASRILWQIAKDQYRSEADIYDLTHSLPWQDWFEPRLSIKVNLAAIKCPLRSLDFVTLRIKDAVCDKFRAIHGKRPDIDTVAPDMRIHGFLNAQEFTLYLDTSGEALFKRGLRQTQGEAPLRENLAAGILALTGWQPGTPLLDPMCGSGTLLLEAAQIACRIAPGSGRQFAFEQLKLFDARSWKKLKQTATERQHERTFQSIYGSDLYGSALAHTRNNLAAAGLAECVTLKQANVLEISAPAETGILVSNPPYGVRIGDHQMLAEFYPRLGDVLKQRFSGWRAFLLTADPLLAKSIRLTPSRRTPLFNGALECRLLEYRLVAGSMRREKQPSSESSTNQPIT | not soluble
MAHHHHHHMFHGFPQVQVVSDDAPTGESIFAKDSDSHVELPPAKKVRISFPALTHLGSFSQDATCHSAVGGRLCGVQQGDTILITSVLPSLGASGDAEDERDDTAESKQQQKMYEKVKEMLRKECLDSYSVGYFIVSSACVNDPYSVVTADRLANLAIDGHPSVLLVYDPFRTGLMGKLYLRAFVPTDAFLDFSRKNKKTKKTDKKSGMQEEARLLRACSVPKQGVLREVKVEVEVDAYQLFCLNGIDIAPLPSNSTVHHSDSMADYKVALLESVQRNLSDLEGKLSRETSRNQRDENNVPPARGVDTMLALVQLREQAQHLEALCDGTLLISSLLRDL | not soluble
MALETPTPGPPREGQSPASQAGTQHPPAQATAHSQSSPEFKGSLASLSDSLGVSVMATDQDSYSTSSTEEELEQFSSPSVKKKPSMILGKARHRLSFASFSSMFHAFLSNNRKLYKKVVELAQDKGSYFGSLVQDYKVYSLEMMARQTSSTEMLQEIRTMMTQLKSYLLQSTELKALVDPALHSEEELEAIVESALYKCVLKPLKEAINSCLHQIHSKDGSLQQLKENQLVILATTTTDLGVTTSVPEVPMMEKILQKFTSMHKAYSPEKKISILLKTCKLIYDSMALGNPGKPYGADDFLPVLMYVLARSNLTEMLLNVEYMMELMDPALQLGEGSYYLTTTYGALEHIKSYDKITVTRQLSVEVQDSIHRWERRRTLNKARASRSSVQDFICVSYLEPEQQARTLASRADTQAQALCAQCAEKFAVERPQAHRLFVLVDGRCFQLADDALPHCIKGYLLRSEPKRDFHFVYRPLDGGGGGGGSPPCLVVREPNFL | soluble
MLIPWQDLSPETLENLIESFVLREGTDYGEHERTLEQKVADVKRQLQCGEAVLVWSELHETVNIMPRSQFRE | soluble
MSLIKTEFKGNNIPYEYAAGADVSDSINGNPIKSFPFEVIELPEGTKYLAWSLIDYDAIPVCGFAWIHWSVANVSVSGNSISIKADLSRTKGDYVQGKNSFTSGLLAEDFSEIENHYVGPTPPDQDHQYELTVYALDHSLNLKNGFYLNEFLKEVNQHKIDQTSINLIGRKEGGSHHHHHH | soluble
MSERLFVLSQHILPKLALTRLAGRFADWKGGGITTAAIRRFIARYNVDMGEAADSDPAAYATFNDFFTRALKPGVRPVADARLVCPVDGAVSQLGAIDSGRIFQAKGRDYSATALLAGDADLAARFADGHFATIYLSPRDYHRIHMPCAGRLLEMTYVPGDLYSVNPATARGVDRLFARNERVVCVFEDEQSQPFVMVLVGATIVGSMATVWHGVVNPPRRPAVEKWDYRGQDIRLAKGEEMGRFLLGSTVVLLYPAGPLKFNPQWQAASPVRMGEAMASLEHHHHHH | not soluble
MNLLERIKKLAKDRDVSIYQLEEEINIGRNTIYQWNKRTPSSDKLEAVANYFNVSVDYLLGRTENPNQAGAKPSDDLDDVLDNVMSFDGEPLDDHDREVIRAYLKGRFGK | not soluble
MGSDKIHHHHHHMDNSEEKKLEALGAFEISRKMLALAQKNEKSNIFLNAGRGNPNWIQTLARLAFVRLVQFGVTESKLTINNGIMAGYINTDGIRERLFAFLDPDKNDEDKFLIDAVNYCHTELGLNRDKVVAEWVNGAVANNYPVPDRCLVNTEKIINYFLQELSYKDANLAEQTDLFPTEGGTAAIVYAFHSLAENHLLKKGDKIAINEPIFTPYLRIPELKDYELVEVDLHSYEKNDWEIEPNEIEKLKDPSIKALIVVNPTNPTSKEFDTNALNAIKQAVEKNPKLMIISDEVYGAFVPNFKSIYSVVPYNTMLVYSYSKLFGCTGWRLGVIALNEKNVFDDNIAHLDKVELRQLHKRYSSVVLDPDKMKFIDRLCADSRSIGLYHTAGLSTPQQIMEALFSMTHLLTSTNGGSDDPYIDIARKLVSERYDQLHDAMQAPKDETDTNTHYYSLIDIYRLAEKIYGKEFRDYLTNNFEQVDFLLKLAEKNGVVLVDGVGFGAKPGELRVSQANLPTEDYALIGKQVLELLKEYYEEFKQNN | not soluble
MGSDKIHHHHHHMAKNKTAYVCNECGQDFPRWQGQCSACQEWNTITEVRLGAASPGRSTKFVGYAGASSNEVKTLDQIDLNAMPRILSHFGELDRVLGGGIVPGSAILIGGHPGAGKSTLLLQTLCHLAEQMPALYVTGEESLQQVAMRAHRLGLPTNKLRMLSETSVEQICEVALKELPKVIVVDSIQVMHMSDVASSPGSVSQVRESASYLTRFAKENGIAVIMVGHVTKDGSLAGPKVLEHCIDCSVMFEGDSDSRYRTLRSHKNRFGAINELGVFAMTERGLKEVANPSAIFLSRGEEESSGSLVMVVWEGTRPLLVELQVLVDNSAMSNPRRVAVGMDANRLAMLLAVMHRHGGLQMSDQDVFVNVVGGVKVTETSADLTLLLAMVSSFRGDILPSDLVAFGEVGLSGEIRPVPNGQERLIEAAKHGFKRAIVPKANVPKKPPAGMEVVGVSKLSEALEAI | not soluble
MKLAVITDSSVYLPQDFVQREDLFILDIDITIDGKTYIEGKNLSLDEFYTKMAASKELPKTSQPNLAELDDLLTNLEEEAYTHVIGLFLSGGISGFHQNIQYLIAEHDKLEIAFPDTKITSSPMGLMVMEALKWGREEIAFEQILVNLQVMIDKTNAFIMVDDLNHLVKGGRLSNGSALLGNLLSIKPILYFTNGRIEVFEKVRTEKKAIKRLISIIDEVTADGSYMVYIIHANARGKAEDLQKRLVDHGYTKNLAIVPFNGVIATHLGEGAIALGAIPII | not soluble
MDYTASYYTDEELAKLFKAAKGDPLELPIVLAAYYGLRRSEIIGLRWDAIDFNPDDPKITIQFTVTEVNFGDGQGNVIIEKEGTKSKASKRTLPLVKPIADLLLQKKKDIENNRRLCGSCYNDKYLDFVHVNEIGERMKPNYISQHFALLLEKHGLKKIRFHDLRHSCASLLYANGVSLKQIQEWLGHSDISTTANIYTHLDYNSKIATANAILPVLFDQLEHHHHHH | not soluble
MGSDKIHHHHHHMELDDAYANGAYIEGAADYPPRWAASAEDFRNSLQDRARLNLSYGEGDRHKFDLFLPEGTPVGLFVFVHGGYWMAFDKSSWSHLAVGALSKGWAVAMPSYELCPEVRISEITQQISQAVTAAAKEIDGPIVLAGHSAGGHLVARMLDPEVLPEAVGARIRNVVPISPLSDLRPLLRTSMNEKFKMDADAAIAESPVEMQNRYDAKVTVWVGGAERPAFLDQAIWLVEAWDADHVIAFEKHHFNVIEPLADPESDLVAVITA | not soluble
